# Results published in article PMC6907089.
# Legend:
# Experiment in all cases: BioID proximity labeling, quantitative mass spectrometry
# Settings in all cases: inducible HEK293 cells; read off a plot
# [1] = target: DBNL
# [2] = target: CHM4B
# [3] = target: ZYX
# [4] = target: TBD2B
# [5] = target: CCD43
# [6] = target: EMC2
# [7] = target: DHYS
# [8] = target: NSF
# [9] = target: SYAP1
# [10] = target: VRK2
# [11] = target: NSMA3
# [12] = target: COPB2
# [13] = target: SEPT9
# [14] = target: ICAL
# [15] = target: COPB
# [16] = target: AL1A2
# [17] = target: WDR44
# [18] = target: ELP4
# [19] = target: COPD
# [20] = target: TBPL1
# [21] = target: CPIN1
# [22] = target: RFA2
# [23] = target: COPE
# [24] = target: RFA3
# [25] = target: EFHD2
# [26] = target: N4BP1
# [27] = target: syntaxin 5 (STX5) (UniProt Q13190)
# [28] = target: PAPOA
# [29] = target: SAHH2
# [30] = target: TES
# [31] = target: GRWD1
# [32] = target: CKSP2
# [33] = target: SH3G1
# [34] = target: COPA
# [35] = target: EIF3D
# [36] = target: NHLC2
# [37] = target: AP2B1
# [38] = target: S23IP
# [39] = target: DBLOH
# [40] = target: TXND9
# [41] = target: XIAP
# [42] = target: CDKAL
# [43] = target: SNP29
# UniProt Q13190, sequence (Q13190 whole entry): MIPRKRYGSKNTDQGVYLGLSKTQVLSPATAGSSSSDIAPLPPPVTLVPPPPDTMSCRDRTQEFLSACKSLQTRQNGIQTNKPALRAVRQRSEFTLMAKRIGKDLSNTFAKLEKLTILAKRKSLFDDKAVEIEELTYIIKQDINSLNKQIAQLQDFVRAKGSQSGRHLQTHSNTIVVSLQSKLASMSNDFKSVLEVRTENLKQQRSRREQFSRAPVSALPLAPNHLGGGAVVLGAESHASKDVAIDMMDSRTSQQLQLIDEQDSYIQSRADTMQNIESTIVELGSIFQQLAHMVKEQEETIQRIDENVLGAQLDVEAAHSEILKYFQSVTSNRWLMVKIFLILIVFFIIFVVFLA
substance,measurement,setting,value
STING R232 (from UniProt Q86WV6) G207E,ratio to parent,[1],0.24
same,ratio to parent,[2],0.14
same,ratio to parent,[3],0.8
same,ratio to parent,[4],0.5
same,ratio to parent,[5],0.38
same,ratio to parent,[6],0
same,ratio to parent,[7],0
same,ratio to parent,[8],0.57
same,ratio to parent,[9],0.5
same,ratio to parent,[10],0
same,ratio to parent,[11],0.28
same,ratio to parent,[12],0.06
same,ratio to parent,[13],0.12
same,ratio to parent,[14],0.57
same,ratio to parent,[15],0.1
same,ratio to parent,[16],0.05
same,ratio to parent,[17],0.75
same,ratio to parent,[18],0.75
same,ratio to parent,[19],0.1
same,ratio to parent,[20],0.49
same,ratio to parent,[21],0.17
same,ratio to parent,[22],0.43
same,ratio to parent,[23],0.28
same,ratio to parent,[24],0.47
same,ratio to parent,[25],0.44
same,ratio to parent,[26],0.41
same,ratio to parent,[27],0.27
same,ratio to parent,[28],0.96
same,ratio to parent,[29],0.2
same,ratio to parent,[30],0.72
same,ratio to parent,[31],0.26
same,ratio to parent,[32],0.41
same,ratio to parent,[33],0.2
same,ratio to parent,[34],0.04
same,ratio to parent,[35],0.31
same,ratio to parent,[36],0.24
same,ratio to parent,[37],0.72
same,ratio to parent,[38],0.19
same,ratio to parent,[39],0.26
same,ratio to parent,[40],0.53
same,ratio to parent,[41],0.57
same,ratio to parent,[42],0.2
same,ratio to parent,[43],0.09
STING H232 (wild-type; wt) (from UniProt Q86WV6) G207E,ratio to parent,[1],0.47
same,ratio to parent,[2],0.41
same,ratio to parent,[3],0.29
same,ratio to parent,[4],0.39
same,ratio to parent,[5],0.46
same,ratio to parent,[6],0.48
same,ratio to parent,[7],0
same,ratio to parent,[8],0.37
same,ratio to parent,[9],0.41
same,ratio to parent,[10],0.46
same,ratio to parent,[11],0.21
same,ratio to parent,[12],0.36
same,ratio to parent,[13],0.3
same,ratio to parent,[14],0
same,ratio to parent,[15],0.35
same,ratio to parent,[16],0.39
same,ratio to parent,[17],0.32
same,ratio to parent,[18],0.38
same,ratio to parent,[19],0.28
same,ratio to parent,[21],0.46
same,ratio to parent,[22],0.32
same,ratio to parent,[23],0.22
same,ratio to parent,[24],0.34
same,ratio to parent,[25],0.38
same,ratio to parent,[26],0.27
same,ratio to parent,[27],0.47
same,ratio to parent,[28],0.4
same,ratio to parent,[29],0.36
same,ratio to parent,[30],0.47
same,ratio to parent,[31],0.46
same,ratio to parent,[32],0
same,ratio to parent,[34],0.31
same,ratio to parent,[35],0.23
same,ratio to parent,[36],0
same,ratio to parent,[37],0.35
same,ratio to parent,[38],0.39
same,ratio to parent,[39],0.48
same,ratio to parent,[40],0.36
same,ratio to parent,[41],0.21
same,ratio to parent,[42],0.4
same,ratio to parent,[43],0.26
